The values below come from publication doi:10.1101/2022.01.24.477625 (bioRxiv, 2022).

For this test, the target named is SARS-CoV-1 spike protein (FL-GCN4-Avi-His, biotinylated) (SARS-CoV-1 (SARS-CoV), strain , UniProt P59594, stabilised, biotin on the Avi tag). In words: BLI. In general terms: In BLI a coated tip is dipped into the sample, and binding shifts an interference pattern.

B1: CV27 IgG (antibody, V domains shown)
VH: QVQLVESGGGVVQPGRSLRLSCAASGFTFSSYAMHWVRQAPGKGLEWVALISYDGSNKYYADSVKGRFTISRDNSKNTLYLQMNSLRAEDTAVYYCARSFGGSYYYGMDVWGQGTTVTVSS
VL: QSALTQPASVSGSPGQSITISCTGTSSDVGGYNYVSWYQQHPGKAPKLMIYDVSNRPSGVSNRFSGSKSGNTASLTISGLQAEDEADYYCSSYTSSSTPYVFGTGTKVTVL
For the molecule B1, the binding result was “binds”.
